Laboratory results as given in article PMC6780846, “Identification and Characterization of a Novel Protein ASP-3 Purified from Arca subcrenata and Its Antitumor Mechanism” (Marine Drugs, 2019).

Target: T1, vascular endothelial growth factor receptor 2 (UniProt P35968 20-764)
T1 construct: VEGFR2 (vascular endothelial growth factor receptor 2); probably a bought recombinant protein (surmise); also called VEGFR2; VEGFR-2
Assay: SPR; Biacore S200; ASP-3 immobilised on a CM5 chip (NHS/EDC activation); VEGFR2 at 100, 50, 25, 12.5, 6.25 and 3.125 nM flowed over for 180 s at 10 μL/min; running buffer HBS-EP+; reference channel subtracted
Settings: both partners purified

T1 sequence (P35968 20-764): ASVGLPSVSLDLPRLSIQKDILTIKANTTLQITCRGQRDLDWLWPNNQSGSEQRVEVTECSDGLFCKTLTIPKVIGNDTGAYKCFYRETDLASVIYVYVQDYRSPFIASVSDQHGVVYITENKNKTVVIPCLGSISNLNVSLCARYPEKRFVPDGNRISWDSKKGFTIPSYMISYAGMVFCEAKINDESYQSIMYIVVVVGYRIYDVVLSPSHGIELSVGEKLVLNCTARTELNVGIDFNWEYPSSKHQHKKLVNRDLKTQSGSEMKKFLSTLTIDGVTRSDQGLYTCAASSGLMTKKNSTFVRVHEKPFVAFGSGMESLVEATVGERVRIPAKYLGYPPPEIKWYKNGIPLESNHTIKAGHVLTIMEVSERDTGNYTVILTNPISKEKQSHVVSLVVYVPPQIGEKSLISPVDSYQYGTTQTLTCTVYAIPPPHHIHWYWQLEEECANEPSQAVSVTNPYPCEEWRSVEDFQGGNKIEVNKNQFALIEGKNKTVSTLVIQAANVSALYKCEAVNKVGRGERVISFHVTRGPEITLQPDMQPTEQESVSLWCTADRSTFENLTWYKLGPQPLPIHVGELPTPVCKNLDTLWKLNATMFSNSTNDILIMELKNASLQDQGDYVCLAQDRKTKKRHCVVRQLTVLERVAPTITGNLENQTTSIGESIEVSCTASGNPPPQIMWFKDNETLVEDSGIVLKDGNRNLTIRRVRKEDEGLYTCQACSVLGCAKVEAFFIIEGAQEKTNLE

Kd: 39.9 nM
B1: ASP-3 (natural protein, Arca subcrenata)
chain: MDYLTSKWKLWFHSLDVNHDGKISFEDVEESRNKFTDLHKLLGDKASGVKVDMESWWNTYIFKASGGGELSEEMFIKSNTDRYNKDKAAFLNDIQKCFNMIFDVIDTNKDRSIELNEFIYAFKAFGHENEGLVTKAFELLEPKEGLVPLRDIVNAWVSFVTSTDQSKPDAIKQAFDAGF
notes: ASP-3, Arca subcrenata Lischke, 179 amino acids, 20.6 kDa; Native protein isolated from the animal; also called Arca subcrenata protein; cds.c115914_g1_i1
